Reference: US20180086804A1 (COMMISSARIAT A L ENERGIE ATOMIQUE ET AUX ENERGIES …, published 2018)
Where two headings read alike, the source gives them in different places. No end group written: not given here.

Legend:
[1] = target: T1, HLA-DRB3 (HLA-DRB3*01:01) (human); assay: competition ELISA vs biotin-LOL 191-210
T1 construct: mature; purified from homozygous EBV-transformed lymphoblastoid cells with antibody L243

[2] = target: T2, HLA-DR7 (HLA-DRB1*07:01) (human); assay: competition ELISA vs biotin-YKL
T2 construct: mature; purified from homozygous EBV-transformed lymphoblastoid cells with antibody L243

[3] = target: T3, HLA-DR15 (HLA-DRB1*15:01) (human); assay: competition ELISA vs biotin-A3 152-166
T3 construct: mature; purified from homozygous EBV-transformed lymphoblastoid cells with antibody L243

[4] = target: T4, HLA-DR3 (HLA-DRB1*03:01) (human); assay: competition ELISA vs biotin-MT 2-16
T4 construct: mature; purified from homozygous EBV-transformed lymphoblastoid cells with antibody L243

[5] = target: T5, HLA-DRB4 (HLA-DRB4*01:01) (human); assay: competition ELISA vs biotin-E2/E168
T5 construct: mature; purified from homozygous EBV-transformed lymphoblastoid cells with antibody L243

[6] = target: T6, HLA-DR1 (HLA-DRB1*01:01) (human); assay: competition ELISA vs biotin-HA 306-318;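 further: HLA and competitor incubated 24 to 72 h, maximal signal taken from wells lacking competitor, background from wells lacking HLA molecule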
T6 construct: mature; class II HLA molecule purified from homozygous EBV-transformed lymphoblastoid cells with antibody L243

[7] = target: T7, HLA-DRB5 (HLA-DRB5*01:01) (human); assay: competition ELISA vs biotin-HA 306-318;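 further: HLA and competitor incubated 24 to 72 h, maximal signal taken from wells lacking competitor, background from wells lacking HLA molecule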
T7 construct: mature; purified from homozygous EBV-transformed lymphoblastoid cells with antibody L243

[8] = target: T8, HLA-DR4 (HLA-DRB1*04:01) (human); assay: competition ELISA vs biotin-HA 306-318;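 further: HLA and competitor incubated 24 to 72 h, maximal signal taken from wells lacking competitor, background from wells lacking HLA molecule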
T8 construct: mature; purified from homozygous EBV-transformed lymphoblastoid cells with antibody L243

[9] = target: T9, HLA-DR11 (HLA-DRB1*11:01) (human); assay: competition ELISA vs biotin-HA 306-318;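 further: HLA and competitor incubated 24 to 72 h, maximal signal taken from wells lacking competitor, background from wells lacking HLA molecule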
T9 construct: mature; purified from homozygous EBV-transformed lymphoblastoid cells with antibody L243

[10] = target: T10, HLA-DP402 (HLA-DPB1*04:02) (human, UniProt P20036 29-222); assay: competition ELISA vs biotin-Oxy 271-287
T10 construct: mature; purified from homozygous EBV-transformed lymphoblastoid cells with antibody B7/21

[11] = target: T11, HLA-DP401 (HLA-DPB1*04:01) (human, UniProt P20036 29-222); assay: competition ELISA vs biotin-Oxy 271-287
T11 construct: mature; purified from homozygous EBV-transformed lymphoblastoid cells with antibody B7/21

[12] = target: T2, HLA-DR7 (HLA-DRB1*07:01); assay: competition ELISA vs biotin-YKL; remark: listed apart in the source
[13] = target: T12, HLA-DR13 (HLA-DRB1*13:01) (human); assay: competition ELISA vs biotin-B1 21-36
T12 construct: mature; purified from homozygous EBV-transformed lymphoblastoid cells with antibody L243

[14] = target: T3, HLA-DR15 (HLA-DRB1*15:01); assay: competition ELISA vs biotin-A3 152-166; remark: listed apart in the source
[15] = target: T6, HLA-DR1 (HLA-DRB1*01:01); assay: competition ELISA vs biotin-HA 306-318; remark: listed apart in the source
[16] = target: T7, HLA-DRB5 (HLA-DRB5*01:01); assay: competition ELISA vs biotin-HA 306-318; remark: listed apart in the source
[17] = target: T8, HLA-DR4 (HLA-DRB1*04:01); assay: competition ELISA vs biotin-HA 306-318; remark: listed apart in the source
[18] = target: T9, HLA-DR11 (HLA-DRB1*11:01); assay: competition ELISA vs biotin-HA 306-318; remark: listed apart in the source
[19] = target: T2, HLA-DR7 (HLA-DRB1*07:01); assay: competition ELISA vs biotin-YKL; remark: listed apart in the source
[20] = target: T6, HLA-DR1 (HLA-DRB1*01:01); assay: competition ELISA vs biotin-HA 306-318; remark: listed apart in the source
[21] = target: T8, HLA-DR4 (HLA-DRB1*04:01); assay: competition ELISA vs biotin-HA 306-318; remark: listed apart in the source
[22] = target: T3, HLA-DR15 (HLA-DRB1*15:01); assay: competition ELISA vs biotin-A3 152-166; remark: listed apart in the source
[23] = target: T5, HLA-DRB4 (HLA-DRB4*01:01); assay: competition ELISA vs biotin-E2/E168; remark: listed apart in the source
[24] = target: T7, HLA-DRB5 (HLA-DRB5*01:01); assay: competition ELISA vs biotin-HA 306-318; remark: listed apart in the source
[25] = target: T9, HLA-DR11 (HLA-DRB1*11:01); assay: competition ELISA vs biotin-HA 306-318; remark: listed apart in the source
[26] = target: T11, HLA-DP401 (HLA-DPB1*04:01); assay: competition ELISA vs biotin-Oxy 271-287; remark: listed apart in the source
[27] = target: T12, HLA-DR13 (HLA-DRB1*13:01); assay: competition ELISA vs biotin-B1 21-36; remark: listed apart in the source
[28] = target: T10, HLA-DP402 (HLA-DPB1*04:02); assay: competition ELISA vs biotin-Oxy 271-287; remark: listed apart in the source
[29] = target: T4, HLA-DR3 (HLA-DRB1*03:01); assay: competition ELISA vs biotin-MT 2-16; remark: listed apart in the source
[30] = target: T4, HLA-DR3 (HLA-DRB1*03:01); assay: competition ELISA vs biotin-MT 2-16; remark: listed apart in the source

| Binder | relative affinity [1] | relative affinity [2] | relative affinity [3] | relative affinity [4] | relative affinity [5] | relative affinity [6] | relative affinity [7] | relative affinity [9] | relative affinity [10] | relative affinity [11] | relative affinity [20] | relative affinity [22] | relative affinity [25] | other results |
| --- | --- | --- | --- | --- | --- | --- | --- | --- | --- | --- | --- | --- | --- | --- |
| MTVSIIDRFMQNNCV-NH2 [CCNB1 225-239] | 9 | 5 | 2 | 1 | 6 | 24 | 79 | 31 | 35 | 72 |  |  |  | relative affinity [8]: 100 |
| GNMRAILIDWLVQVQ-NH2 [CCNB1 199-213] | 9 | 10 | 1 | 1 | 9 | 27 | 58 | 77 | 24 | 36 |  |  |  | relative affinity [8]: 56 |
| MALRVTRNSKINAEN-NH2 [CCNB1 1-15] |  |  |  |  |  |  |  |  |  |  |  |  |  | relative affinity [12]: 2; relative affinity [13]: 58; relative affinity [14]: 5; relative affinity [15]: 100; relative affinity [16]: 374; relative affinity [17]: 46; relative affinity [18]: 22 |
| LQLVGVTAMFIASKY-NH2 [CCNB1 244-258] | 267 | 1 | 1 | 9 | 98 | 2 | 1 | 23 | 32 | 77 |  |  |  |  |
| VDVEQHTLAKYLMEL-NH2 [CCNB1 315-329] |  |  |  |  |  |  |  |  |  |  |  |  |  | relative affinity [12]: 6; relative affinity [13]: 211; relative affinity [14]: 7; relative affinity [15]: 2450; relative affinity [16]: 224; relative affinity [18]: 632 |
| PMLVPVPVSEPVPEP-NH2 [CCNB1 87-101] |  |  |  |  |  |  |  |  |  |  | 1500 | 134 |  | relative affinity [19]: 231; relative affinity [21]: 96; relative affinity [23]: 748 |
| SKYEEMYPPEIGDFA-NH2 [CCNB1 256-270] |  |  |  |  |  |  |  |  |  |  | 3 | 153 | 1370 | relative affinity [19]: 61; relative affinity [24]: 603; relative affinity [21]: 456; relative affinity [26]: 894 |
| LPVMQHLAKNVVMVN-NH2 [CCNB1 377-391] |  |  |  |  |  |  |  |  |  |  |  |  |  | relative affinity [12]: 13; relative affinity [13]: 2; relative affinity [15]: 894; relative affinity [16]: 4080; relative affinity [17]: 373; relative affinity [18]: 3 |
| H-KNVVMVNQGLTKHMT-NH2 (not fully specified) [CCNB1 385-399] |  |  |  |  |  |  |  |  |  |  | 4500 | 0.02 | 766 | relative affinity [27]: 37; relative affinity [24]: 52; relative affinity [21]: 986; relative affinity [28]: 2; relative affinity [26]: 116; relative affinity [29]: 228 |
| NTYTKHQIRQMEMKI-NH2 [CCNB1 275-289] |  |  |  |  |  |  |  |  |  |  |  | 85 | 4 | relative affinity [27]: 158; relative affinity [19]: 43; relative affinity [24]: 50; relative affinity [21]: 456; relative affinity [23]: 80 |
| KKLPKPLEKVPMLVP-NH2 [CCNB1 77-91] |  |  |  |  |  |  |  |  |  |  |  |  | 1630 | relative affinity [28]: 474; relative affinity [26]: 212; relative affinity [23]: 75 |
| FRLLQETMYMTVSII-NH2 [CCNB1 216-230] | 11 | 0.5 | 3 | 1 | 22 | 7 | 50 | 14 | 1 | 2 |  |  |  | relative affinity [8]: 2 |
| LALKILDNGEWTPTL-NH2 [CCNB1 351-365] |  |  |  |  |  |  |  |  |  |  | 648 | 52 | 2330 | relative affinity [19]: 624; relative affinity [24]: 3060; relative affinity [21]: 1000; relative affinity [28]: 510 |
| PTLQHYLSYTEESLL-NH2 [CCNB1 363-377] | 11 | 1 | 1 | 1 | 5 | 28 | 24 | 45 | 50 | 22 |  |  |  | relative affinity [8]: 76 |
| NCVPKKMLQLVGVTA-NH2 [CCNB1 237-251] |  |  |  |  |  |  |  |  |  |  | 4 | 65 | 87 | relative affinity [23]: 1400 |
| AKINMAGAKRVPTAP-NH2 [CCNB1 17-31] |  |  |  |  |  |  |  |  |  |  |  |  |  | relative affinity [12]: 3; relative affinity [13]: 21; relative affinity [14]: 120; relative affinity [15]: 5; relative affinity [16]: 11; relative affinity [18]: 2; relative affinity [30]: 833 |
| LHFLRRASKIGEVDV-NH2 [CCNB1 303-317] |  |  |  |  |  |  |  |  |  |  |  |  |  | relative affinity [12]: 849; relative affinity [13]: 1; relative affinity [14]: 17; relative affinity [15]: 495; relative affinity [16]: 1330; relative affinity [17]: 1390; relative affinity [18]: 1; relative affinity [30]: 3 |
| RAILIDWLVQVQMKF-NH2 [CCNB1 202-216] | 2 | 9 | 4 | 1 | 20 | 1220 | 55 | 400 | 14 | 47 |  |  |  | relative affinity [8]: 59 |
| HFPPSQIAAGAFCLA-NH2 [CCNB1 338-352] |  |  |  |  |  |  |  |  |  |  | 598 | 257 |  | relative affinity [19]: 1400; relative affinity [28]: 188 |
